Assay [1] concerns the target binding partner of C5A (XPA23). Description: Biacore. In general terms: In SPR one partner is held on a chip, and binding of the other changes the refractive index at the surface.
Assay [2] deals with binding partner of C5A (XPA23). Description: Biacore K-off.

Among the data in patent publication US20110118447A1 are fold affinity vs original and fold difference in affinity vs original values, retold here.

B1: C5A (XPA23) VH F33D (antibody, V domains shown)
VH: EVQLLESGGGLVQPGGSLRLSCAASGFTFSKYDMFWVRQAPGKGLEWVSVISPSGGMTRYADSVKGRFTISRDNSKNTLYLQMNSLRAEDTAVYYCARVGYGGNSDYWGQGTLVTVSS
VL: DIQMTQSPSSVSASVGDRLTIICRASQDINRWLAWYQQTPGNAPKLLIHSATSLQSGVPSRFSGSGSGTDFTLTINSLQPEDFATYYCQQADSFPLTFGGGTKVEIK
On to B1, for which the fold affinity vs original in assay [1] is 0.92 fold. Moreover, the fold difference in affinity vs original in assay [2] turned out to be 0.92 fold.

B2: C5A (XPA23) VH F33S (antibody, V domains shown)
VH: EVQLLESGGGLVQPGGSLRLSCAASGFTFSKYSMFWVRQAPGKGLEWVSVISPSGGMTRYADSVKGRFTISRDNSKNTLYLQMNSLRAEDTAVYYCARVGYGGNSDYWGQGTLVTVSS
VL: DIQMTQSPSSVSASVGDRLTIICRASQDINRWLAWYQQTPGNAPKLLIHSATSLQSGVPSRFSGSGSGTDFTLTINSLQPEDFATYYCQQADSFPLTFGGGTKVEIK
Regarding B2, in assay [1], the fold affinity vs original was 0.73 fold. Moreover, the fold difference in affinity vs original in assay [2] was determined as 0.73 fold.

B3: C5A (XPA23) VH K31F (antibody, V domains shown)
VH: EVQLLESGGGLVQPGGSLRLSCAASGFTFSFYFMFWVRQAPGKGLEWVSVISPSGGMTRYADSVKGRFTISRDNSKNTLYLQMNSLRAEDTAVYYCARVGYGGNSDYWGQGTLVTVSS
VL: DIQMTQSPSSVSASVGDRLTIICRASQDINRWLAWYQQTPGNAPKLLIHSATSLQSGVPSRFSGSGSGTDFTLTINSLQPEDFATYYCQQADSFPLTFGGGTKVEIK
Regarding B3, in assay [1], the fold affinity vs original worked out at 0.05 fold. The fold difference in affinity vs original in assay [2] came out at 0.05 fold.

B4: C5A (XPA23) VH S30A (antibody, V domains shown)
VH: EVQLLESGGGLVQPGGSLRLSCAASGFTFAKYFMFWVRQAPGKGLEWVSVISPSGGMTRYADSVKGRFTISRDNSKNTLYLQMNSLRAEDTAVYYCARVGYGGNSDYWGQGTLVTVSS
VL: DIQMTQSPSSVSASVGDRLTIICRASQDINRWLAWYQQTPGNAPKLLIHSATSLQSGVPSRFSGSGSGTDFTLTINSLQPEDFATYYCQQADSFPLTFGGGTKVEIK
As to B4, the fold difference in affinity vs original in assay [1] and in assay [2] was 0.77 fold in each case.

B5: C5A (XPA23) VH F33N (antibody, V domains shown)
VH: EVQLLESGGGLVQPGGSLRLSCAASGFTFSKYNMFWVRQAPGKGLEWVSVISPSGGMTRYADSVKGRFTISRDNSKNTLYLQMNSLRAEDTAVYYCARVGYGGNSDYWGQGTLVTVSS
VL: DIQMTQSPSSVSASVGDRLTIICRASQDINRWLAWYQQTPGNAPKLLIHSATSLQSGVPSRFSGSGSGTDFTLTINSLQPEDFATYYCQQADSFPLTFGGGTKVEIK
For B5, the fold affinity vs original in assay [1] was 0.97 fold. In addition, in assay [2], the fold difference in affinity vs original stood at 0.97 fold.

B6: C5A (XPA23) VH S30I (antibody, V domains shown)
VH: EVQLLESGGGLVQPGGSLRLSCAASGFTFIKYFMFWVRQAPGKGLEWVSVISPSGGMTRYADSVKGRFTISRDNSKNTLYLQMNSLRAEDTAVYYCARVGYGGNSDYWGQGTLVTVSS
VL: DIQMTQSPSSVSASVGDRLTIICRASQDINRWLAWYQQTPGNAPKLLIHSATSLQSGVPSRFSGSGSGTDFTLTINSLQPEDFATYYCQQADSFPLTFGGGTKVEIK
For the molecule B6, the fold difference in affinity vs original in assay [1] and in assay [2] was 0.08 fold in each case.

B7: C5A (XPA23) VH F33K (antibody, V domains shown)
VH: EVQLLESGGGLVQPGGSLRLSCAASGFTFSKYKMFWVRQAPGKGLEWVSVISPSGGMTRYADSVKGRFTISRDNSKNTLYLQMNSLRAEDTAVYYCARVGYGGNSDYWGQGTLVTVSS
VL: DIQMTQSPSSVSASVGDRLTIICRASQDINRWLAWYQQTPGNAPKLLIHSATSLQSGVPSRFSGSGSGTDFTLTINSLQPEDFATYYCQQADSFPLTFGGGTKVEIK
For the molecule B7, the fold affinity vs original in assay [1] was found to be 0.85 fold. The fold difference in affinity vs original in assay [2] is 0.85 fold.

B8: C5A (XPA23) VH K31I (antibody, V domains shown)
VH: EVQLLESGGGLVQPGGSLRLSCAASGFTFSIYFMFWVRQAPGKGLEWVSVISPSGGMTRYADSVKGRFTISRDNSKNTLYLQMNSLRAEDTAVYYCARVGYGGNSDYWGQGTLVTVSS
VL: DIQMTQSPSSVSASVGDRLTIICRASQDINRWLAWYQQTPGNAPKLLIHSATSLQSGVPSRFSGSGSGTDFTLTINSLQPEDFATYYCQQADSFPLTFGGGTKVEIK
Consider B8, for which the fold difference in affinity vs original in assay [1] and in assay [2] was 0.74 fold in each case.

B9: C5A (XPA23) VH F33E (antibody, V domains shown)
VH: EVQLLESGGGLVQPGGSLRLSCAASGFTFSKYEMFWVRQAPGKGLEWVSVISPSGGMTRYADSVKGRFTISRDNSKNTLYLQMNSLRAEDTAVYYCARVGYGGNSDYWGQGTLVTVSS
VL: DIQMTQSPSSVSASVGDRLTIICRASQDINRWLAWYQQTPGNAPKLLIHSATSLQSGVPSRFSGSGSGTDFTLTINSLQPEDFATYYCQQADSFPLTFGGGTKVEIK
With B9, the fold affinity vs original in assay [1] was 0.86 fold. Moreover, in assay [2], the fold difference in affinity vs original was 0.86 fold.

B10: C5A (XPA23) VH F33Q (antibody, V domains shown)
VH: EVQLLESGGGLVQPGGSLRLSCAASGFTFSKYQMFWVRQAPGKGLEWVSVISPSGGMTRYADSVKGRFTISRDNSKNTLYLQMNSLRAEDTAVYYCARVGYGGNSDYWGQGTLVTVSS
VL: DIQMTQSPSSVSASVGDRLTIICRASQDINRWLAWYQQTPGNAPKLLIHSATSLQSGVPSRFSGSGSGTDFTLTINSLQPEDFATYYCQQADSFPLTFGGGTKVEIK
For the molecule B10, the fold affinity vs original in assay [1] is 0.78 fold. For the same molecule, the fold difference in affinity vs original in assay [2] is 0.78 fold.

B11: C5A (XPA23) VH F33Y (antibody, V domains shown)
VH: EVQLLESGGGLVQPGGSLRLSCAASGFTFSKYYMFWVRQAPGKGLEWVSVISPSGGMTRYADSVKGRFTISRDNSKNTLYLQMNSLRAEDTAVYYCARVGYGGNSDYWGQGTLVTVSS
VL: DIQMTQSPSSVSASVGDRLTIICRASQDINRWLAWYQQTPGNAPKLLIHSATSLQSGVPSRFSGSGSGTDFTLTINSLQPEDFATYYCQQADSFPLTFGGGTKVEIK
With B11, the fold affinity vs original in assay [1] turned out to be 0.77 fold. The fold difference in affinity vs original in assay [2] was 0.77 fold.

B12: C5A (XPA23) VH Y32G (antibody, V domains shown)
VH: EVQLLESGGGLVQPGGSLRLSCAASGFTFSKGFMFWVRQAPGKGLEWVSVISPSGGMTRYADSVKGRFTISRDNSKNTLYLQMNSLRAEDTAVYYCARVGYGGNSDYWGQGTLVTVSS
VL: DIQMTQSPSSVSASVGDRLTIICRASQDINRWLAWYQQTPGNAPKLLIHSATSLQSGVPSRFSGSGSGTDFTLTINSLQPEDFATYYCQQADSFPLTFGGGTKVEIK
In the case of B12, the fold difference in affinity vs original in assay [1] and in assay [2] was 1 fold in each case.

B13: C5A (XPA23) VH S30L (antibody, V domains shown)
VH: EVQLLESGGGLVQPGGSLRLSCAASGFTFLKYFMFWVRQAPGKGLEWVSVISPSGGMTRYADSVKGRFTISRDNSKNTLYLQMNSLRAEDTAVYYCARVGYGGNSDYWGQGTLVTVSS
VL: DIQMTQSPSSVSASVGDRLTIICRASQDINRWLAWYQQTPGNAPKLLIHSATSLQSGVPSRFSGSGSGTDFTLTINSLQPEDFATYYCQQADSFPLTFGGGTKVEIK
With B13, the fold difference in affinity vs original in assay [1] and in assay [2] was 0.91 fold in each case.

B14: C5A (XPA23) VH K31W (antibody, V domains shown)
VH: EVQLLESGGGLVQPGGSLRLSCAASGFTFSWYFMFWVRQAPGKGLEWVSVISPSGGMTRYADSVKGRFTISRDNSKNTLYLQMNSLRAEDTAVYYCARVGYGGNSDYWGQGTLVTVSS
VL: DIQMTQSPSSVSASVGDRLTIICRASQDINRWLAWYQQTPGNAPKLLIHSATSLQSGVPSRFSGSGSGTDFTLTINSLQPEDFATYYCQQADSFPLTFGGGTKVEIK
As to B14, the fold affinity vs original in assay [1] is 0.84 fold. Besides, the fold difference in affinity vs original in assay [2] was 0.84 fold.

B15: C5A (XPA23) VH S30W (antibody, V domains shown)
VH: EVQLLESGGGLVQPGGSLRLSCAASGFTFWKYFMFWVRQAPGKGLEWVSVISPSGGMTRYADSVKGRFTISRDNSKNTLYLQMNSLRAEDTAVYYCARVGYGGNSDYWGQGTLVTVSS
VL: DIQMTQSPSSVSASVGDRLTIICRASQDINRWLAWYQQTPGNAPKLLIHSATSLQSGVPSRFSGSGSGTDFTLTINSLQPEDFATYYCQQADSFPLTFGGGTKVEIK
For the molecule B15, the fold affinity vs original in assay [1] stood at 0.77 fold. In addition, in assay [2], the fold difference in affinity vs original was 0.77 fold.

B16: C5A (XPA23) VH K31V (antibody, V domains shown)
VH: EVQLLESGGGLVQPGGSLRLSCAASGFTFSVYFMFWVRQAPGKGLEWVSVISPSGGMTRYADSVKGRFTISRDNSKNTLYLQMNSLRAEDTAVYYCARVGYGGNSDYWGQGTLVTVSS
VL: DIQMTQSPSSVSASVGDRLTIICRASQDINRWLAWYQQTPGNAPKLLIHSATSLQSGVPSRFSGSGSGTDFTLTINSLQPEDFATYYCQQADSFPLTFGGGTKVEIK
Consider B16, for which the fold difference in affinity vs original in assay [1] and in assay [2] was 0.81 fold each time.

B17: C5A (XPA23) VH S30G (antibody, V domains shown)
VH: EVQLLESGGGLVQPGGSLRLSCAASGFTFGKYFMFWVRQAPGKGLEWVSVISPSGGMTRYADSVKGRFTISRDNSKNTLYLQMNSLRAEDTAVYYCARVGYGGNSDYWGQGTLVTVSS
VL: DIQMTQSPSSVSASVGDRLTIICRASQDINRWLAWYQQTPGNAPKLLIHSATSLQSGVPSRFSGSGSGTDFTLTINSLQPEDFATYYCQQADSFPLTFGGGTKVEIK
With B17, the fold difference in affinity vs original in assay [1] and in assay [2] was 0.13 fold throughout.

B18: C5A (XPA23) VH K31L (antibody, V domains shown)
VH: EVQLLESGGGLVQPGGSLRLSCAASGFTFSLYFMFWVRQAPGKGLEWVSVISPSGGMTRYADSVKGRFTISRDNSKNTLYLQMNSLRAEDTAVYYCARVGYGGNSDYWGQGTLVTVSS
VL: DIQMTQSPSSVSASVGDRLTIICRASQDINRWLAWYQQTPGNAPKLLIHSATSLQSGVPSRFSGSGSGTDFTLTINSLQPEDFATYYCQQADSFPLTFGGGTKVEIK
Consider B18, for which the fold difference in affinity vs original in assay [1] and in assay [2] was 1.08 fold in each case.

B19: C5A (XPA23) VH F33T (antibody, V domains shown)
VH: EVQLLESGGGLVQPGGSLRLSCAASGFTFSKYTMFWVRQAPGKGLEWVSVISPSGGMTRYADSVKGRFTISRDNSKNTLYLQMNSLRAEDTAVYYCARVGYGGNSDYWGQGTLVTVSS
VL: DIQMTQSPSSVSASVGDRLTIICRASQDINRWLAWYQQTPGNAPKLLIHSATSLQSGVPSRFSGSGSGTDFTLTINSLQPEDFATYYCQQADSFPLTFGGGTKVEIK
For B19, the fold difference in affinity vs original in assay [1] and in assay [2] was 0.78 fold in each case.
